Results: US20230220021A1 (UNIVERSITY OF COPENHAGEN, published 2023)
Numbering of substitutions follows the chain as printed. Names may count otherwise. Like-named read-outs stand apart in the source and are kept apart here. Bridges are numbered along the chain shown (N, C = ends). Where no end group is shown, it is not given here. [ ]: non-standard residue; d: D form.

What was measured:
[1] = biological target: T1, (7× His)-PSD-95-PDZ2 wild type (UniProt P78352 160-246); assay: FP saturation
T1 construct: domain: PDZ2; recombinant from E. coli; also called PSD-95-PDZ2 WT; not shown: 7x His tag

PSD-95-PDZ2 V229A = biological target: T2, PSD-95-PDZ2 V229A (UniProt P78352 160-246); assay: FP saturation
T2 construct: domain: PDZ2; not shown: 7x His tag

PSD-95-PDZ2 K165A = biological target: T3, PSD-95-PDZ2 K165A (UniProt P78352 160-246); assay: FP saturation
T3 construct: domain: PDZ2; also called K165 mutation; not shown: 7x His tag

[2] = biological target: T1, (7× His)-PSD-95-PDZ2 wild type; assay: FP competition
Target sequence in this assay (P78352 160-246): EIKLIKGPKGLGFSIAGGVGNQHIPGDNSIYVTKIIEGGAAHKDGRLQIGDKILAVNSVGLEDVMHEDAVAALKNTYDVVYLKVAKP
Description: Fluorescence polarization (FP). FP assays were performed in a 384-well plate format. Fluorescence polarization was measured using a Safire 2 plate reader. The instrument Z-factor was optimized for each assay. The G-factor was calibrated to an initial milli polarization value of 20. […] Every measurement was performed in NaPI 50 mM, 50 mM NaCl and 1% BSA at pH 7.2, 25° C. […] The curves were done in triplicates. […] The mili polarization (mP) values were plotted as a function of peptide concentration and fitted to a sigmoidal dose-response curve using Prism software 8.0 (GraphPad).
Data was collected in triplicates and is presented as mean of Kᵢ values±SEM

[3] = biological target: T1, (7× His)-PSD-95-PDZ2 wild type; assay: FP competition; remark: listed apart in the source
Target sequence in this assay (P78352 160-246): as above
Description: (§1) Fluorescence polarization (FP). FP assays were performed in a 384-well plate format. Fluorescence polarization was measured using a Safire 2 plate reader. The instrument Z-factor was optimized for each assay. The G-factor was calibrated to an initial milli polarization value of 20. […] Every measurement was performed in NaPI 50 mM, 50 mM NaCl and 1% BSA at pH 7.2, 25° C. […] The curves were done in triplicates. Then, the polarization was fitted into a one-site binding model using Prism software 8.0 (GraphPad), from which the Kd can be measured. […] The mili polarization (mP) values were plotted as a function of peptide concentration and fitted to a sigmoidal dose-response curve using Prism software 8.0 (GraphPad). The Kᵢ values were calculated according to Nikolovska-Coleska Z. et al.⁴⁰⁻⁴¹

[4] = biological target: T1, (7× His)-PSD-95-PDZ2 wild type; assay: FP competition; remark: listed apart in the source
Target sequence in this assay (P78352 160-246): as above
Description: as §1

[5] = biological target: T1, (7× His)-PSD-95-PDZ2 wild type; assay: FP competition; remark: listed apart in the source
Target sequence in this assay (P78352 160-246): as above
Description: as §1

PSD-95-PDZ2 H225A = biological target: T4, PSD-95-PDZ2 H225A (UniProt P78352 160-246); assay: FP saturation
T4 construct: domain: PDZ2; not shown: 7x His tag

PSD-95-PDZ2 K168A = biological target: T5, PSD-95-PDZ2 K168A; assay: FP saturation, TAMRA probe titrated with the protein
T5 chain: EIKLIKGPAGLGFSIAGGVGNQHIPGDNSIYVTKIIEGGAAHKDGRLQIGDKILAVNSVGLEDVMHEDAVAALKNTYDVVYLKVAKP
Description: as §1
(§2) Obtained binding affinities (Kd values) for each PSD-95-PDZ2 Ala mutants were normalized to PSD-95-PDZ2 WT values to obtain the fold change for each mutation (FIG. 8).

PSD-95-PDZ2 S173A = biological target: T6, PSD-95-PDZ2 S173A; assay: as above
T6 chain: T5 chain with A9K, S14A
Description: as §1, §2

PSD-95-PDZ2 N180A = biological target: T7, PSD-95-PDZ2 N180A; assay: as above
T7 chain: T5 chain with A9K, N21A
Description: as §1, §2

PSD-95-PDZ2 T192A = biological target: T8, PSD-95-PDZ2 T192A; assay: as above
T8 chain: T5 chain with A9K, T33A
Description: as §1, §2

PSD-95-PDZ2 K193A = biological target: T9, PSD-95-PDZ2 K193A; assay: as above
T9 chain: T5 chain with A9K, K34A
Description: as §1, §2

PSD-95-PDZ2 E226A = biological target: T10, PSD-95-PDZ2 E226A; assay: as above
T10 chain: T5 chain with A9K, E67A
Description: as §1, §2

PSD-95-PDZ2 K233A = biological target: T11, PSD-95-PDZ2 K233A; assay: as above
T11 chain: T5 chain with A9K, K74A
Description: as §1, §2

[6] = biological target: T1, (7× His)-PSD-95-PDZ2 wild type; assay: ITC, 25 °C
Target sequence in this assay (P78352 160-246): as the sequence (P78352 160-246) above
Description: Isothermal titration calorimetry (ITC). […] Proteins were dialyzed against this buffer using Amicon® Ultra-15 centrifugal filter units, with a MWCO 3000 Da.
This assay was performed on an ITC200. The instrument differential power (DP) was set to 10 and the syringe rotating speed to 600 RPM. The assay setup consisted of introducing the protein inside the cell and the peptide (titrant) on the syringe. Calorimetry was performed at 25° C. Each analysis was performed in triplicates. Furthermore, several runs of peptide into buffer were performed in order to remove injection residual heat. Runs were analyzed with Origin 7.0 software (OriginLab).

[7] = biological target: T1, (7× His)-PSD-95-PDZ2 wild type; assay: FP competition; remark: listed apart in the source
Target sequence in this assay (P78352 160-246): as the sequence (P78352 160-246) above
Description: as §1

[8] = biological target: T1, (7× His)-PSD-95-PDZ2 wild type; assay: FP competition; remark: listed apart in the source
Description: as §1
Data was collected in triplicates and is presented as mean of Kᵢ values±SEM.

**Q.** What does the source list for cyclo(C(TAMRA maleimide)THLETTFTGDGTPKTIRVTQ[dP]G) (also called cyclic nNOS TAMRA probe) [cyclic nNOS β-hairpin TAMRA probe, cyclo-(CTHLETTFTGDGTPKTIRVTQpG) labelled with TAMRA]?
**A.** Kd [1]: 1000 nM; fold loss in affinity vs PDZ2 WT (PSD-95-PDZ2 V229A): 6 fold; fold loss in affinity vs PDZ2 WT (PSD-95-PDZ2 K165A): 4 fold

**Q.** How did the Ki [2] turn out when THLETTFTGDGXPKTIRVTQPGQ (cyclic; D-Pro; phospho-Thr 116) [cyclic nNOS β-hairpin peptide pT116] was run?
**A.** 210 nM

**Q.** With XHLETTFTGDGTPKTIRVTQPGQ (cyclic; D-Pro; N-methyl Thr 105) [cyclic nNOS β-hairpin peptide N-Me-T105] as the binder, how does the “fold decrease in affinity” value [3] read?
**A.** 5 fold

**Q.** And the Ki [4]?
**A.** 4800 nM

**Q.** XHLETTFTGDGTPKTIRVTQPGC (cyclic by thioether (N-terminal acetyl to Cys); D-Pro, also called thioether bridged analogue) [Cyclo-(Ac105…124pGC), Thioether] was tested. Which Ki [5] did it give?
**A.** 4.8 µM

B1: TAMRA labelled C-terminal GluN2B peptide (KLSSIESDV-COOH) (peptide)
peptide: KLSSIESDV-OH
modifications: also: TAMRA label (site not given here)
notes: also called C-terminal GluN2B TAMRA probe; GluN2B canonical peptide
**Q.** What does the source list for B1?
**A.** Kd [1]: 4000 nM; fold decrease in affinity vs PDZ2 WT (PSD-95-PDZ2 H225A): 5 fold; fold loss in affinity vs PDZ2 WT (PSD-95-PDZ2 V229A): 2 fold; fold loss in affinity vs PDZ2 WT (PSD-95-PDZ2 K165A): 5 fold; binding result (PSD-95-PDZ2 K168A): binds; binding result (PSD-95-PDZ2 S173A): binds; binding result (PSD-95-PDZ2 N180A): binds; binding result (PSD-95-PDZ2 T192A): binds; binding result (PSD-95-PDZ2 K193A): binds; binding result (PSD-95-PDZ2 E226A): binds; binding result (PSD-95-PDZ2 K233A): binds

B2: cyclic nNOS β-hairpin peptide (WT), Cyclo-(THLETTFTGDGTPKTIRVTQpG(Qα)) (peptide)
peptide: cyclo(THLETTFTGDGTPKTIRVTQ[dP]GQ)
SMILES: CC[C@H](C)[C@@H]1NC(=O)[C@H]([C@@H](C)O)NC(=O)[C@H](CCCCN)NC(=O)[C@@H]2CCCN2C(=O)[C@H]([C@@H](C)O)NC(=O)CNC(=O)[C@H](CC(=O)O)NC(=O)CNC(=O)[C@H]([C@@H](C)O)NC(=O)[C@H](Cc2ccccc2)NC(=O)[C@H]([C@@H](C)O)NC(=O)[C@H]([C@@H](C)O)NC(=O)[C@H](CCC(=O)O)NC(=O)[C@H](CC(C)C)NC(=O)[C@H](Cc2c[nH]cn2)NC(=O)[C@H]([C@@H](C)O)NC(=O)[C@H](CCC(N)=O)NC(=O)CNC(=O)[C@H]2CCCN2C(=O)[C@H](CCC(N)=O)NC(=O)[C@H]([C@@H](C)O)NC(=O)[C@H](C(C)C)NC(=O)[C@H](CCCNC(=N)N)NC1=O
notes: also called Cyclic WT; Wild type mimic
**Q.** Which “-ΔS*T” value [6] does the source give for B2 here?
**A.** 350 cal/mol

**Q.** What about the Kd [6] of the same binder?
**A.** 2150 nM

**Q.** What about the ΔH [6] of the same binder?
**A.** -7740 cal/mol

**Q.** With THLETTFTGDGTPKTIRVTQ[dP]GD-NH2 (lactam N-23) [Cyclo-(105THLETTFTGDGTPKTIRVTQ124pG(Dγ)), Asp side-chain lactam] as the binder, how does the Ki [5] read?
**A.** 4.29 µM

B3: cyclic nNOS β-hairpin peptide G115P T116E (peptide)
peptide: cyclo(THLETTFTGDPEPKTIRVTQ[dP]GQ)
SMILES: CC[C@H](C)[C@@H]1NC(=O)[C@H]([C@@H](C)O)NC(=O)[C@H](CCCCN)NC(=O)[C@@H]2CCCN2C(=O)[C@H](CCC(=O)O)NC(=O)[C@@H]2CCCN2C(=O)[C@H](CC(=O)O)NC(=O)CNC(=O)[C@H]([C@@H](C)O)NC(=O)[C@H](Cc2ccccc2)NC(=O)[C@H]([C@@H](C)O)NC(=O)[C@H]([C@@H](C)O)NC(=O)[C@H](CCC(=O)O)NC(=O)[C@H](CC(C)C)NC(=O)[C@H](Cc2c[nH]cn2)NC(=O)[C@H]([C@@H](C)O)NC(=O)[C@H](CCC(N)=O)NC(=O)CNC(=O)[C@H]2CCCN2C(=O)[C@H](CCC(N)=O)NC(=O)[C@H]([C@@H](C)O)NC(=O)[C@H](C(C)C)NC(=O)[C@H](CCCNC(=N)N)NC1=O
**Q.** With B3 as the binder, how does the Ki [7] read?
**A.** 22.5 µM

B4: cyclic nNOS β-hairpin peptide T112W G115P (peptide)
peptide: cyclo(THLETTFWGDPTPKTIRVTQ[dP]GQ)
SMILES: CC[C@H](C)[C@@H]1NC(=O)[C@H]([C@@H](C)O)NC(=O)[C@H](CCCCN)NC(=O)[C@@H]2CCCN2C(=O)[C@H]([C@@H](C)O)NC(=O)[C@@H]2CCCN2C(=O)[C@H](CC(=O)O)NC(=O)CNC(=O)[C@H](Cc2c[nH]c3ccccc23)NC(=O)[C@H](Cc2ccccc2)NC(=O)[C@H]([C@@H](C)O)NC(=O)[C@H]([C@@H](C)O)NC(=O)[C@H](CCC(=O)O)NC(=O)[C@H](CC(C)C)NC(=O)[C@H](Cc2c[nH]cn2)NC(=O)[C@H]([C@@H](C)O)NC(=O)[C@H](CCC(N)=O)NC(=O)CNC(=O)[C@H]2CCCN2C(=O)[C@H](CCC(N)=O)NC(=O)[C@H]([C@@H](C)O)NC(=O)[C@H](C(C)C)NC(=O)[C@H](CCCNC(=N)N)NC1=O
**Q.** B4 was tested. Which Ki [7] did it give?
**A.** 0.95 µM

**Q.** THLETTFTGDGTPKTIRVTQ[dP]GE-NH2 (lactam N-23) [Cyclo-(105THLETTFTGDGTPKTIRVTQ124pG(Eγ)), Glu side-chain lactam] was tested. Which Ki [5] did it give?
**A.** 3.6 µM

**Q.** THLETTFXGDGTPKTIRVTQPGQ (cyclic; D-Pro; phospho-Thr 112) [cyclic nNOS β-hairpin peptide pT112] was tested. Which Ki [2] did it give?
**A.** 2680 nM

**Q.** Which fold improved affinity [3] does the source give for THLETTFTGDGTPKTIRVXQPGQ (cyclic; D-Pro; N-methyl Thr 123) [cyclic nNOS β-hairpin peptide N-Me-T123] here?
**A.** 2 fold

**Q.** What about the Ki [4] of the same binder?
**A.** 580 nM

**Q.** How did the Ki [8] turn out when TXLETTFTGDGTPKTIRVTQPGQ (cyclic; D-Pro; His(3-Me) at 106) [cyclic nNOS β-hairpin peptide His(3-Me)] was run?
**A.** 400 nM

**Q.** With THLETTFTGDGTPXTIRVTQPGQ (cyclic; D-Pro; N-methyl Lys 118) [cyclic nNOS β-hairpin peptide N-Me-K118] as the binder, how does the fold improved affinity [3] read?
**A.** 2 fold

**Q.** What about the Ki [4] of the same binder?
**A.** 480 nM

**Q.** How did the Ki [8] turn out when TXLETTFTGDGTPKTIRVTQPGQ (cyclic; D-Pro; His(1-Me) at 106) [cyclic nNOS β-hairpin peptide His(1-Me)] was run?
**A.** 2900 nM

**Q.** Which Ki [2] does the source give for THLETTFTGDGTPKTIRVXQPGQ (cyclic; D-Pro; phospho-Thr 123) [cyclic nNOS β-hairpin peptide pT123] here?
**A.** 1150 nM

**Q.** For cyclo(CTHLETTFTGDGTPKTIRVTQ[dP]G) (also called NCL peptide) [Cyclo-(C105THLETTFTGDGTPKTIRVTQ124pG), NCL], which Ki [5] is on record?
**A.** 1.01 µM
